Experimental data reported in the supplement of paper PMC7877785.
± gives the uncertainty stated by the source.

Experiment: self-splicing fitness, log relative to wild type (ln ratio); higher = more splicing; Tetrahymena group I intron in knt gene, E. coli kanamycin selection, DiMSum; sequences stand for … in CUCUCU…GGAGGGAAAAGUUAUCAGGCAUGCACCUGGUAGCUAGUCUUUAAACCAAUAGAUUGCAUCGGUUUAAAAGGCAAGACCGUCAAAUUGCGGGAAAGGGGUCAACAGCCGUUCAGUACCAAGUCUCAGGGGAAACUUUGAGAUGGCCUUGCAAAGGGUAUGGUAAUAAGCUGACGGACAUGGUCCUAACCACGCAGCCAAGUCCUAAGUCAACAGAUCUUCUGUUGAUAUGGAUGCAGUUCACAGACUAAAUGUCGGUCGGGGAAGAUGUAUUCUUCUCAUAAGAUAUAGUCGGACCUCUCCUUAAUGGGAGCUAGCGGAUGAAGUGAUGCAACACUGGAGCCGCUGGGAACUAAUUUGUAUGCGAAAGUAUAUUGAUUAGUUUUGGAGUACUCGUGGUCG
Outline: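 Six replicate transformations of E. coli BL21(DE3) with a pET-22b(+) library were grown overnight at 37°C or 30°C. The library randomised all eight P1ex-region intron nucleotides, the intron lying in the knt kanamycin-resistance gene, and plates were LB agar with or without 25 μg/mL kanamycin plus 100 μg/mL carbenicillin, 50 μM IPTG and 0.2% rhamnose. Pooled colonies were amplicon-sequenced on an Illumina HiSeq 2500, and fitness is the DiMSum error-weighted combination of wild-type-normalised replicate fold changes, kanamycin versus none.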

Row | Sequence | self-splicing fitness (ln) (30 °C) | self-splicing fitness (ln) (37 °C)
1 | AACGAGCAAUAUUACGUGAA | -3.48 ± 0.19 | -3.65 ± 0.24
2 | ACUUAGCAAUAUUACGAGAG | -2.21 ± 0.12 | -0.741 ± 0.11
3 | CCAAAGCAAUAUUACGACGC | -3.71 ± 0.35 | 
4 | GCCGAGCAAUAUUACGAGAU | -2.65 ± 0.19 | -1.66 ± 0.2
5 | AUCUAGCAAUAUUACGCAGU | -2.53 ± 0.18 | -2.09 ± 0.2
6 | GUUGAGCAAUAUUACGUAAG | -2.08 ± 0.18 | -1.17 ± 0.19
7 | UCAUAGCAAUAUUACGUUCU | -2.79 ± 0.27 | -2.32 ± 0.21
8 | AUUCAGCAAUAUUACGUUGU | -3.14 ± 0.15 | -2.3 ± 0.21
9 | CCCUAGCAAUAUUACGGCAC | -3.42 ± 0.21 | -1.5 ± 0.2
10 | CGUAAGCAAUAUUACGUGCC | -2.64 ± 0.23 | -1.67 ± 0.2
11 | UAGGAGCAAUAUUACGGUUA | -1.64 ± 0.12 | 0.0427 ± 0.11
12 | UCUUAGCAAUAUUACGCCAU | -2.69 ± 0.3 | -2.26 ± 0.42
13 | AAGAAGCAAUAUUACGUUCU | -2.55 ± 0.11 | -1.26 ± 0.1
14 | CCGUAGCAAUAUUACGGACG | -1.88 ± 0.26 | 
15 | CUCAAGCAAUAUUACGACGC | -1.75 ± 0.24 | -2.18 ± 0.42
16 | GGUGAGCAAUAUUACGUGGA | -2.86 ± 0.36 | -3.3 ± 0.28
17 | CACGAGCAAUAUUACGAUAU | -2.64 ± 0.15 | -2.19 ± 0.28
18 | CAUUAGCAAUAUUACGCGUG | -3.16 ± 0.15 | -2.89 ± 0.24
19 | AAGCAGCAAUAUUACGGGCU | -1.64 ± 0.14 | -1.93 ± 0.21
20 | GCCCAGCAAUAUUACGAAUA | -1.62 ± 0.1 | -1.19 ± 0.12
21 | GGGCAGCAAUAUUACGAACU | -0.431 ± 0.065 | -0.278 ± 0.09
22 | CUAUAGCAAUAUUACGCUGG | -3.36 ± 0.37 | -2.05 ± 0.32
23 | CAUAAGCAAUAUUACGAAAU | -3.7 ± 0.2 | -2.68 ± 0.22
24 | UUCAAGCAAUAUUACGGGUU | -2.38 ± 0.12 | -0.76 ± 0.12
25 | CUGAAGCAAUAUUACGUUAG | -0.376 ± 0.063 | 0.25 ± 0.096
26 | GCUAAGCAAUAUUACGAAAA | -1.27 ± 0.15 | -1.6 ± 0.17

Row | Sequence | self-splicing fitness (ln) (30 °C) | self-splicing fitness (ln) (37 °C)
27 | CAUUAGCAAUAUUACGGUUG | -1.63 ± 0.09 | -0.664 ± 0.11
28 | UUGCAGCAAUAUUACGCCUA | -0.384 ± 0.084 | 0.346 ± 0.11
29 | AGUAAGCAAUAUUACGCUAU | -4.08 ± 0.32 | -1.41 ± 0.13
30 | CAAUAGCAAUAUUACGGGCG | 0.548 ± 0.093 | 0.28 ± 0.11
31 | GACAAGCAAUAUUACGAAUG | -2.42 ± 0.1 | -0.875 ± 0.098
32 | AAAGAGCAAUAUUACGCGCA | -2.39 ± 0.17 | -1.5 ± 0.12
33 | CGAGAGCAAUAUUACGAACG | -2.48 ± 0.2 | -1.04 ± 0.21
34 | AGUAAGCAAUAUUACGCGGC |  | -3.37 ± 0.42
35 | CCCAAGCAAUAUUACGUAUU | -3.8 ± 0.16 | -2.7 ± 0.17
36 | CCAUAGCAAUAUUACGCCGG | -2.5 ± 0.21 | -3.15 ± 0.47
37 | AUUAAGCAAUAUUACGCUUU | -2.38 ± 0.24 | -1.24 ± 0.32
38 | UGACAGCAAUAUUACGAUCU | -0.412 ± 0.07 | 0.277 ± 0.082
39 | CAGCAGCAAUAUUACGAGUC | -4.41 ± 0.29 | -2.24 ± 0.14
40 | GCGCAGCAAUAUUACGAAGA | -1.64 ± 0.13 | -0.808 ± 0.12
41 | UAAGAGCAAUAUUACGAGUC | -3.17 ± 0.49 | 
42 | AUCUAGCAAUAUUACGAGUA | -2.58 ± 0.27 | -1.53 ± 0.18
43 | GCUUAGCAAUAUUACGCGAU | -3.45 ± 0.34 | -1.69 ± 0.29
44 | ACGGAGCAAUAUUACGCGCG | -2 ± 0.15 | -0.429 ± 0.14
45 | GAUAAGCAAUAUUACGGCAU | -0.333 ± 0.06 | 0.188 ± 0.085
46 | CGUCAGCAAUAUUACGCGUA | -1.93 ± 0.18 | -0.985 ± 0.12
47 | GGACAGCAAUAUUACGUGAC | -1.07 ± 0.081 | -1.23 ± 0.13
48 | UGGCAGCAAUAUUACGAAGU | -3.69 ± 0.37 | -2.62 ± 0.23
49 | UGUAAGCAAUAUUACGGACU | -0.351 ± 0.094 | 0.0199 ± 0.11
50 | GUGAAGCAAUAUUACGGUGC | -1.74 ± 0.27 | -0.977 ± 0.27
51 | UGCGAGCAAUAUUACGUACG | -3.12 ± 0.21 | -2.49 ± 0.22
52 | UGUAAGCAAUAUUACGAGAC | -3.68 ± 0.43 | -0.552 ± 0.26

Row | Sequence | self-splicing fitness (ln) (30 °C) | self-splicing fitness (ln) (37 °C)
53 | AUUGAGCAAUAUUACGAUAG | -4.02 ± 0.28 | -3.03 ± 0.3
54 | GAGGAGCAAUAUUACGCUUA | -1.5 ± 0.16 | -1.42 ± 0.21
55 | AAGCAGCAAUAUUACGGGUG | -3.43 ± 0.13 | -1.85 ± 0.1
56 | AUGCAGCAAUAUUACGAGCA | -0.52 ± 0.089 | -0.627 ± 0.097
57 | UCCGAGCAAUAUUACGUUCA | -2.55 ± 0.2 | -3.16 ± 0.4
58 | AUUAAGCAAUAUUACGCUGU | -3.23 ± 0.16 | -1.97 ± 0.19
59 | UUAGAGCAAUAUUACGCUGG | -1.75 ± 0.11 | -0.227 ± 0.18
60 | GUCAAGCAAUAUUACGGAUC | -2.77 ± 0.1 | -1.09 ± 0.093
61 | CAACAGCAAUAUUACGCCCA | -0.825 ± 0.097 | -1.04 ± 0.1
62 | UGCAAGCAAUAUUACGGUUA | 0.147 ± 0.075 | 0.11 ± 0.078
63 | ACGCAGCAAUAUUACGCUGU | -2.71 ± 0.14 | -3.83 ± 0.28
64 | ACACAGCAAUAUUACGUACG | -1.19 ± 0.067 | -0.925 ± 0.081
65 | ACCAAGCAAUAUUACGUGUA | -2.28 ± 0.09 | -1.37 ± 0.096
66 | GUUCAGCAAUAUUACGAUGU | -0.419 ± 0.075 | 0.31 ± 0.11
67 | GCCCAGCAAUAUUACGGUGU | -2.51 ± 0.067 | -1.27 ± 0.076
68 | CCCCAGCAAUAUUACGUGAC | -2.7 ± 0.11 | -3.24 ± 0.21
69 | UUAGAGCAAUAUUACGAGGU |  | -2.29 ± 0.35
70 | GUUCAGCAAUAUUACGUGGA | -3.5 ± 0.41 | -1.42 ± 0.2
71 | AGAUAGCAAUAUUACGCAGA | -2.95 ± 0.18 | -2.32 ± 0.2
72 | ACCCAGCAAUAUUACGGAUG | -1.57 ± 0.067 | -0.939 ± 0.083
73 | UGAAAGCAAUAUUACGCUAU | -3.32 ± 0.23 | -1.54 ± 0.17
74 | UUAUAGCAAUAUUACGGAUU | -3.1 ± 0.43 | -2.02 ± 0.29
75 | CCCCAGCAAUAUUACGAGAC | -3.9 ± 0.18 | -2.37 ± 0.21
76 | UAGAAGCAAUAUUACGCUUU |  | -1.99 ± 0.3
77 | GGCUAGCAAUAUUACGAACA | -1.01 ± 0.15 | -0.682 ± 0.15
